The assay has as its target Psilocybe mexicana IasA (indole-3-acetaldehyde synthase), C-terminally hexahistidine-tagged (Psilocybe mexicana). As to the kind of experiment: SEC; Superdex 200 increase 10/300 GL, native protein, 50 mM sodium phosphate, 150 mM NaCl, pH 7.2, 0.5 mL/min. (In general: Size exclusion chromatography separates by hydrodynamic size, large species first.)

As usually defined, the stoichiometry N is a count of units in the complex or per binding partner. “Psilocybe mexicana IasA (indole-3-acetaldehyde synthase), C-terminally hexahistidine-tagged (enzyme)” returned a stoichiometry N of 2.

The record behind these values is paper PMC11046786.
